Results taken from patent US8268779B2, “Pharmaceutical composition comprising oxyntomodulin derivatives and a method for reducing body weight using the composition” (Merck Sharp & Dohme Corp., priority 2006, dated 2012).
Non-standard residues stand in square brackets, D forms with d. Residues, ends and D or L forms follow the SMILES beside them. No end group written: not given here. *: point of attachment. C3 = cysteine residue PEGylated via the side-chain thiol with branched methoxyPEG [(mPEG)2] of 40 kDa (Cys(mPEG)2 40 kDa); (mPEG)2 40 kDa = C3 = Cys(mPEG)2 40 kDa, cysteine PEGylated via side-chain thiol with branched mPEG of 40 kDa; Desaminohistidyl = O=C(CCc1c[nH]cn1)*; Met(O) = CS(=O)CC[C@H](N)C(=O)O; Aib = CC(C)(N)C(=O)O

Experiments:
hGLP-1R [1] = target: T1, hGLP-1R (Homo sapiens, UniProt P43220); test: EC50 (hGLP-1R), nM | "-DPP-IV"
Procedure: (§1) Table printed on a drawing sheet, FIG.17
Head of the field: EC50 (hGLP-1R), nM | "-DPP-IV"
(§2) First copying reader's note: The "+DPP-IV" column is the hGLP-1R EC50 measured after incubation with DPP-IV, so stability is shown as a potency shift against the "-DPP-IV" column.
(§3) Where the first naming reader finds the target: head: EC50 (hGLP-1R), nM

hGLP-1R [2] = target: T1, hGLP-1R; test: EC50 (hGLP-1R), nM | "+DPP-IV"
Procedure: as §1, §2, §3

[3] = target: T2, recombinant soluble human DP-IV (Homo sapiens, UniProt P27487); test: Resistance to DP-IV cleavage (preincubation with DP-IV, then hGLP-1R cAMP HTRF assay); format: in vitro ADME; conditions: FIG. 1
T2 construct: recombinant soluble human DP-IV
T2 sequence (P27487 39-766 limits assumed): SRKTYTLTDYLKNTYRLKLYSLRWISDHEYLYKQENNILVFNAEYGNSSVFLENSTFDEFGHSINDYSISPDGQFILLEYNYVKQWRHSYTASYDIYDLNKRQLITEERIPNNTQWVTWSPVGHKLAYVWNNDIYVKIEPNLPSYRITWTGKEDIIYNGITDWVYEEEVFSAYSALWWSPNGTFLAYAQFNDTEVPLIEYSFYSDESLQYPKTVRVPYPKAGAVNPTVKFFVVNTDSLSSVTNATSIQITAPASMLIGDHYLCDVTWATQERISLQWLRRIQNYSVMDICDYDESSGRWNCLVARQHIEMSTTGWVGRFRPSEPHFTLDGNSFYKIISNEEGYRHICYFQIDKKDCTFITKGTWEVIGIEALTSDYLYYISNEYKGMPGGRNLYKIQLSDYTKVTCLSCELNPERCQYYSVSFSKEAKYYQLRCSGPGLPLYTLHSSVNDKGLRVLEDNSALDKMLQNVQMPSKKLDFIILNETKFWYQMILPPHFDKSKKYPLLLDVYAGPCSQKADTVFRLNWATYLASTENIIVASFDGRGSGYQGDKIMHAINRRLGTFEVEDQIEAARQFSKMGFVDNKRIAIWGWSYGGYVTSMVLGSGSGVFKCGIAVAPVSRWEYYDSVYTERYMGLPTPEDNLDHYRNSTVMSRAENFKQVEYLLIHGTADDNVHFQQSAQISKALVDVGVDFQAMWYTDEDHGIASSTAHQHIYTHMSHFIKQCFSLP
Procedure: Activation of hGLP-1R was subsequently measured using the Cis Bio HTRF cAMP assay and compared to control peptides pre-incubated at 37° C. for 2 hours in the absence of DP-IV.

[4] = test system: mutant form of the human GLP-1R; test: GLP-1R cAMP HTRF assay in transfected CHO cells; format: cell-based
Male C57BL/6N mice = test: Acute effects on food intake and body weight in lean mice; format: in vivo, mouse; conditions: for overnight food intake and body weight gain in lean mice: FIG. 3; for overnight body weight gain in mice fed ad libitum: equimolar/similar doses
Procedure: Absolute changes in food intake were calculated for each animal by subtracting the amount of food remaining in the food hopper at the specified time points from that of the corresponding original pre-weighed aliquot. Absolute changes in body weight were calculated for each animal by subtracting the body weight of the animal prior to dosing from that of the corresponding animal at the specified time points. All values were reported as mean±SEM and peptide treatment groups were analyzed by the two-tailed unpaired Student's t test with reference to vehicle-treated animals. […] (FIG. 3)

[5] = Hydrolysis sites on incubation in PBS containing 10% mouse or human plasma; format: in vitro ADME; conditions: 37° C.
Procedure: A detailed study was undertaken in which OXM139 was incubated in PBS containing 10% of mouse or human plasma at 37° C. Sample preparation was accomplished by mixing 1 μL of test solution and 1 μL of matrix (α-cyano) directly on the sample plate. After crystallization Tof spectrum was collected: Time points at 30, 60, 120 and 720 minutes were analyzed and compared with the same time points of the control test solutions. […] Specifically, Arg 17 was mutated to Glu and Arg 18 was mutated to Ala. The peptide OXM153 is the N-ethyl maleimide analog of OXM151. The peptide OXM154 is the conjugate obtained using a (mPEG)240 kDa from NOF Corporation (SUNBRIGHT GL2-400MA Maleimide).
A similar study of stability was performed on a GcgK series analog OXM144 to determine the primary sites of hydrolysis by incubation with PBS, containing 10% of either mouse or human plasma. […] For this reason, it was decided to introduce mutations at the sites 17 and 18 also in the GcgK analog series.

glucagon-like activity = test: Glucagon-like activity in vitro (FIG. 13)
[6] = test system: islets from wild type C57BL/6 mice; test: Glucose-stimulated insulin secretion (GSIS) in wild type murine islets; format: cell-based, mouse
Procedure: (§4) To measure GSIS, islets were first preincubated for 30 minutes in the Krebs-Ringer bicarbonate (KRB) buffer with 2 mM glucose (in Petri dishes). […] Insulin was measured in aliquots of the incubation buffer by ELISA with a commercial kit (ALPCO Diagnostics, Windham, N.H.).

[7] = test system: islets from GLP-1R−/− mice; test: GSIS in GLP-1R-/- islets; format: cell-based, mouse; conditions: 10 nM peptide, 16 mmol/l glucose
Procedure: as §4

[8] = test system: islets from GCG-R−/− mice; test: GSIS in GCG-R-/- islets; conditions: 10 nM peptide
Procedure: as §4

GLP-1R−/− mice = test: IPGTT with plasma glucose and insulin in GLP-1R-/- mice; format: in vivo, mouse
mice = test: Gastric emptying in mice; format: in vivo, mouse; conditions: maximally efficacious dose for glucose lowering
WT mice = test: IPGTT with plasma glucose and insulin in WT mice; format: in vivo, mouse; conditions: OXM 0.3 mpk i.p., exendin-4 0.02 mpk i.p.

Molecule | EC50 (hGLP-1R [1]) [nM] | EC50 (hGLP-1R [2]) [nM] | further results
HαDGTFTSDYSKYLDSRRAC3DFVQWLmNTKRNRNNIA-CONH2 [OXM125] | 3.9 | 42.5 | –
H2αQGTFTSDYSKYLDSRRAQDFVQWLmNTKRNRNNIAC4-CONH2 (XXQGTFTSDYSKYLDSRRAQDFVQWLXNTKRNRNNIAX; Aib2, D-Met, C-terminal amide, conjugated Cys; Synthetic peptide based on the human oxyntomodulin sequence) [OXM114] | 0.06 | 0.05 | –
HαQGTFTSDYSC3YLDSRRAQDFVQWLmNTKRNRNNIA-CONH2 [OXM124] | > 100 | > 100 | –
H2αQGTFTSDYSKYLDSRRAQDFVQWLmNTKRNRNNIAC3-CONH2 (XXQGTFTSDYSKYLDSRRAQDFVQWLXNTKRNRNNIAX; Aib2, D-Met, C-terminal amide, conjugated Cys; Synthetic peptide based on the human oxyntomodulin sequence) [OXM113] | 93.3 | 92.3 | –
H2αQGTFTSDYSKYLDSRRAQDFVQWLmNTKRNRNNIAC5-CONH2 (XXQGTFTSDYSKYLDSRRAQDFVQWLXNTKRNRNNIAX; Aib2, D-Met, C-terminal amide, modified Cys; Synthetic peptide based on the human oxyntomodulin sequence) [OXM112] | 6.9 | 10.9 | –
H2αDGTFTSDYSKYLDSRRAC3DFVQWLmNTKRNRNNIA-CONH2 ([Desaminohistidyl][Aib]DGTFTSDYSKYLDSRRAC((mPEG)2 40 kDa)DFVQWL[Met(O)]NTKRNRNNIA-NH2) [OXM129] | 25 | 123 | –
HGQGTFTSDYSKYLDSRRAQDFVQWLMNTKRNRNNIAC2-COOH (HGQGTFTSDYSKYLDSRRAQDFVQWLMNTKRNRNNIAX; C2 conjugate at C-terminal cysteine; Synthetic peptide based on the human oxyntomodulin sequence) [OXM2] | – | – | hGLP-1R potency after preincubation of the peptide with DP-IV [3]: loss of potency; potency against GLP-1R in vitro relative to native OXM [4]: significantly less potent than native OXM; overnight food intake and body weight gain in lean mice (Male C57BL/6N mice): reducing overnight food intake and body weight gain; overnight body weight gain in mice fed ad libitum (Male C57BL/6N mice): effective in reducing overnight body weight gain
HGQGTFTSDYSKYLDSRRAQDFVQWLMNTKRNRNNIAA-COOH (Synthetic peptide based on the human oxyntomodulin sequence) [OXM1] | – | – | overnight body weight gain in mice fed ad libitum (Male C57BL/6N mice): not efficacious
HαQGTFTSDYSKYLDSRRAQDFVC3WLmNTKRNRNNIA-CONH2 [OXM107] | 29.7 | 182 | –
HαDGTFTSDYSKYLDSRRAC8DFVQWLmNTK-CONH2 [OXM144] | – | – | primary hydrolysis site [5]: bond between Arg17 and Arg18; secondary site of hydrolysis [5]: bond between Arg18 and Ala19
HαDGTFTSDYSKYLDSRRAQDFVQWLmNTKRNRNNIAC3-CONH2 [OXM117, (mPEG)240 kDa conjugate made with MPEG2-MAL-40K (NEKTAR)] | – | – | glucagon-like activity in vitro (glucagon-like activity): no glucagon-like activity
HαQGTFTSDYSKYLDSRRAQC3FVQWLMNTKRNRNNIA-CONH2 (HXQGTFTSDYSKYLDSRRAQXFVQWLMNTKRNRNNIA; Aib2, C-terminal amide, conjugated Cys; Synthetic peptide based on the human oxyntomodulin sequence) [OXM105] | 28.5 | 36.7 | –
HαDGTFTSDYSKYLDSRRAQDFVQWLmNTKRNRNNIAC3-CONH2 (H[Aib]DGTFTSDYSKYLDSRRAQDFVQWL[Met(O)]NTKRNRNNIAC((mPEG)2 40 kDa)-NH2) [OXM117, (mPEG)240 kDa conjugate made with MPEG2-MAL-40K (NEKTAR)] | – | 41.3 | –
HαDGTFTSDYSKYLDSRRAQDFVQWLmNTKRNRNNIAC8-CONH2 [OXM139] | – | – | primary hydrolysis site [5]: bond between Arg17 and Arg18; secondary site of hydrolysis [5]: bond between Arg18 and Ala19
HαQGTFTSDYSKYLDSRRAQDFVQWLmNTKRNRNNIAC6-CONH2 [OXM100] | 22.5 | 184 | –
HGQGTFTSDYSKYLDSRRAQDFVQWLMNTKRNRNNIAC3-COOH (HGQGTFTSDYSKYLDSRRAQDFVQWLMNTKRNRNNIAX; C3 conjugate at C-terminal cysteine; Synthesized oxyntomodulin polypeptide) [OXM3] | – | – | potency against GLP-1R in vitro relative to native OXM [4]: significantly less potent than native OXM; overnight food intake and body weight gain in lean mice (Male C57BL/6N mice): reducing overnight food intake and body weight gain; overnight body weight gain in mice fed ad libitum (Male C57BL/6N mice): effective in reducing overnight body weight gain
CSCC[C@H](NC(=O)[C@H](CC(C)C)NC(=O)[C@H](Cc1c[nH]c2ccccc12)NC(=O)[C@H](CCC(N)=O)NC(=O)[C@@H](NC(=O)[C@H](Cc1ccccc1)NC(=O)[C@H](CC(=O)O)NC(=O)[C@H](CCC(N)=O)NC(=O)[C@H](C)NC(=O)[C@H](CCCNC(=N)N)NC(=O)[C@H](CCCNC(=N)N)NC(=O)[C@H](CO)NC(=O)[C@H](CC(=O)O)NC(=O)[C@H](CC(C)C)NC(=O)[C@H](Cc1ccc(O)cc1)NC(=O)[C@H](CCCCN)NC(=O)[C@H](CO)NC(=O)[C@H](Cc1ccc(O)cc1)NC(=O)[C@H](CC(=O)O)NC(=O)[C@H](CO)NC(=O)[C@@H](NC(=O)[C@H](Cc1ccccc1)NC(=O)[C@@H](NC(=O)CNC(=O)[C@H](CC(=O)O)NC(=O)C(C)(C)NC(=O)[C@@H](N)Cc1c[nH]cn1)[C@@H](C)O)[C@@H](C)O)C(C)C)C(=O)N[C@@H](CC(N)=O)C(=O)N[C@H](C(=O)N[C@@H](CCCCN)C(N)=O)[C@@H](C)O [OXM131] (H-H[Aib]DGTFTSDYSKYLDSRRAQDFVQWLMNTK-NH2; N-terminus assumed) | 0.9 | 2.2 | –
HαDGTFTSDYSKYLDSRRAQDFVQWLmNTKRNRNNIAC4-CONH2 [OXM118] | 0.025 | < 0.5 | –
GLP-1: incretin hormone glucagon-like peptide 1, positive control | – | – | GSIS in WT islets ([6]; 10 nM peptide, 16 mmol/l glucose): enhanced GSIS in WT islets with equal efficacy; potentiation of GSIS in WT islets in the presence of exendin-9 ([6]; 0.5 μM exendin-9): completely blocked; potentiation of GSIS in GLP-1R−/− islets [7]: completely unable to enhance GSIS; GSIS in GCG-R−/− islets ([8]; 16 mM glucose): significantly increased GSIS; fold-increase in fractional GSIS in GCG-R−/− islets ([8]; % insulin released relative to total islet insulin content): 2.5 fold
HαQGTFTSDYSKYLDSRRAQDC4VQWLmNTKRNRNNIA-CONH2 [OXM127] | > 500 | > 500 | –
HαQGTFTSDYSKYLDSRRAC3DFVQWLMNTKRNRNNIA-CONH2 (H[Aib]QGTFTSDYSKYLDSRRA[C3]DFVQWLMNTKRNRNNIA-NH2) [OXM103] | 6.2 | 12.7 | –
HαQGTFTSDYSKYLDSRRAQDFVQWLmNTKRNRNNIAC3-CONH2 [OXM99] | 7.5 | 27.5 | –
exendin-4: GLP-1 mimetic, GLP-1 receptor agonist used as comparator | – | – | basal insulin levels (GLP-1R−/− mice): did not affect basal insulin levels; insulin response to i.p. glucose challenge (GLP-1R−/− mice): nor did it improve the insulin response; glucose excursion in IPGTT (GLP-1R−/− mice; same doses): did not affect glucose excursion; reduction of gastric emptying (mice): 47%; reduction of glucose AUC relative to the vehicle group (WT mice): > 60%
HαQGTFTSDYSKYLDSRRAQDFVQWLMC3TKRNRNNIA-CONH2 (HXQGTFTSDYSKYLDSRRAQDFVQWLMXTKRNRNNIA; Aib2, C-terminal amide, conjugated Cys; Synthetic peptide based on the human oxyntomodulin sequence) [OXM109] | 7.6 | 14.5 | –
HαQGTFTSDYC3KYLDSRRAQDFVQWLmNTKRNRNNIA-CONH2 [OXM121] | > 125 | > 125 | –
HαQGTFTSDYSKYLDSRRAQDFVQWLMNTK-CONH2 (HXQGTFTSDYSKYLDSRRAQDFVQWLMNTK; Aib2, C-terminal amide; Synthetic peptide based on the human oxyntomodulin sequence) [OXM130] | 5.8 | 8.7 | –
